Reference: the supplement of paper PMC10065799, “High-throughput profiling of sequence recognition by tyrosine kinases and SH2 domains using bacterial peptide display” (eLife, 2023)

Columns and labels:
FGFR1 = FGFR1 (UniProt P11362); experiment: phosphorylation enrichment, bacterial display (enrichment ratio); higher = better substrate or ligand; peptides without Tyr show the background
FGFR3 = FGFR3 (UniProt P22607); experiment: as above
AncSZ = experiment: as above
EPHB2 = EPHB2 (UniProt P29323); experiment: as above
c-Abl (mouse) = experiment: as above
Hck = Hck (UniProt P08631); experiment: as above
Fes = Fes (UniProt P07332); experiment: as above
Fer (mouse) = experiment: as above
EPHB1 = EPHB1 (UniProt P54762); experiment: as above
Jak2 = Jak2 (UniProt O60674); experiment: as above
Fyn = Fyn (UniProt P06241); experiment: as above
c-Src = experiment: as above
MERTK = MERTK (UniProt Q12866); experiment: as above
Grb2 SH2 = Grb2 SH2 (UniProt P62993); experiment: SH2 binding enrichment of the phosphorylated peptide, bacterial display (enrichment ratio); higher = better substrate or ligand; peptides without Tyr show the background
c-Src SH2 = experiment: as above
SHP2-C SH2 = experiment: as above
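Wherever SH2 binding enrichment of the phosphorylated peptide, bacterial display is given: peptide library displayed on the E. coli surface as eCPX fusions, selected cells deep-sequenced, score is each peptide's frequency after selection divided by its frequency in the input.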
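Wherever phosphorylation enrichment, bacterial display is given: 11-residue human phosphosite peptides and single-mutation variants displayed on the E. coli surface, counted by deep sequencing, each peptide's frequency after selection divided by its frequency in the unselected input library; frequency after pTyr selection over input frequency; kinase dosed for 20-30% of maximal phosphorylation in three min.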

Sequence of FGFR1 (P11362 whole entry, looked up): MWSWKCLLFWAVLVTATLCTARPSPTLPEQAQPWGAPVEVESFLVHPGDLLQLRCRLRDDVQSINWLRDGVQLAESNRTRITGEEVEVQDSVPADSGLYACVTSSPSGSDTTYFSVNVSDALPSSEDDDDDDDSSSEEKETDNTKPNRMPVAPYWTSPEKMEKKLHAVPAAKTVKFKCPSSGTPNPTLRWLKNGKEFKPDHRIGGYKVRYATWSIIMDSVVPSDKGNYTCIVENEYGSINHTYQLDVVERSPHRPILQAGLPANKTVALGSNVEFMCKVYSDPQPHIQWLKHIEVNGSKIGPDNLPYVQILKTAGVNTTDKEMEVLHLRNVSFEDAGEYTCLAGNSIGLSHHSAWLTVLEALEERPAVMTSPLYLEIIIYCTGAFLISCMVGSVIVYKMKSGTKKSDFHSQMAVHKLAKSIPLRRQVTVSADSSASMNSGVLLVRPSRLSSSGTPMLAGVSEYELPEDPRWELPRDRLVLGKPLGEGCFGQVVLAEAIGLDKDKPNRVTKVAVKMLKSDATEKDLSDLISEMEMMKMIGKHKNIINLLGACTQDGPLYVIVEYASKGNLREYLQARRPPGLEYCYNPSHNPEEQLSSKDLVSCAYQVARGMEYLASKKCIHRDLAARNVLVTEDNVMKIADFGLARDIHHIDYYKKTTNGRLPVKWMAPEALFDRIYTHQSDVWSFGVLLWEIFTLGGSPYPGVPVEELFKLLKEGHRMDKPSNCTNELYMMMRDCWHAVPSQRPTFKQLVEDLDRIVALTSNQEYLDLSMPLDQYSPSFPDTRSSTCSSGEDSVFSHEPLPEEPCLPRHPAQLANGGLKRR
Sequence of EPHB2 (P29323 whole entry, looked up): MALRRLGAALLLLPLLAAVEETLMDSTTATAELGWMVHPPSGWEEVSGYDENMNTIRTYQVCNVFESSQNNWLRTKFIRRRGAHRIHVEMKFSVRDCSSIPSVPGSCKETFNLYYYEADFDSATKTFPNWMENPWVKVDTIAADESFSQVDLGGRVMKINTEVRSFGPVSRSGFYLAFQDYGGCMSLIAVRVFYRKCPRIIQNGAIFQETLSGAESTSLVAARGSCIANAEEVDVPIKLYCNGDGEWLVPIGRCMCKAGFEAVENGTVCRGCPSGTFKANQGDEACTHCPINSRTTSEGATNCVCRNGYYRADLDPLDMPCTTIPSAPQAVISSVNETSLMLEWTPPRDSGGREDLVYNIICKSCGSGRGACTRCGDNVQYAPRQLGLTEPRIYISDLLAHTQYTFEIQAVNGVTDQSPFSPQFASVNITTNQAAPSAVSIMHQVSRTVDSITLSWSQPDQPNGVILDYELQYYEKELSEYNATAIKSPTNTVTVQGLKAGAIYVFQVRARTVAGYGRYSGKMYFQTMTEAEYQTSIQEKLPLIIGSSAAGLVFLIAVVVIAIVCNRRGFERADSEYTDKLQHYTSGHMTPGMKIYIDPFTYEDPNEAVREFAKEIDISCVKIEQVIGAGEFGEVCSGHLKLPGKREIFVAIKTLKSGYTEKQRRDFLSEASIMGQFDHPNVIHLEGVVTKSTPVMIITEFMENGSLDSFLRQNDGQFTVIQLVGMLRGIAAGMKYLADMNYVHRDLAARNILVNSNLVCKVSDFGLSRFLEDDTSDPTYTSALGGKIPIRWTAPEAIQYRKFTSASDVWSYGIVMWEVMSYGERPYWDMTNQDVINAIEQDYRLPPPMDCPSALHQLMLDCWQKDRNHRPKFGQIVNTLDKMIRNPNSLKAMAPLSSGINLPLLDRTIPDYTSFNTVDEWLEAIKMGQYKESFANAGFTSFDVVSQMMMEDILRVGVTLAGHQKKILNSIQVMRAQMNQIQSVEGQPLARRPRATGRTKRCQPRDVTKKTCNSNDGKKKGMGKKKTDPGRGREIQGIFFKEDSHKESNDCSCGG
Sequence of Grb2 SH2 (P62993 whole entry, looked up): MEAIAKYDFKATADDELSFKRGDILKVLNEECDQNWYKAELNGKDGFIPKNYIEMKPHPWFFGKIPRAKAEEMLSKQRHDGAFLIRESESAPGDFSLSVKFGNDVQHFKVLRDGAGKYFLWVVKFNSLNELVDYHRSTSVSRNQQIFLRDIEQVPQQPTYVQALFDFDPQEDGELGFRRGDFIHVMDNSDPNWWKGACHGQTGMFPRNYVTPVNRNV
Sequence of Jak2 (O60674 whole entry, looked up): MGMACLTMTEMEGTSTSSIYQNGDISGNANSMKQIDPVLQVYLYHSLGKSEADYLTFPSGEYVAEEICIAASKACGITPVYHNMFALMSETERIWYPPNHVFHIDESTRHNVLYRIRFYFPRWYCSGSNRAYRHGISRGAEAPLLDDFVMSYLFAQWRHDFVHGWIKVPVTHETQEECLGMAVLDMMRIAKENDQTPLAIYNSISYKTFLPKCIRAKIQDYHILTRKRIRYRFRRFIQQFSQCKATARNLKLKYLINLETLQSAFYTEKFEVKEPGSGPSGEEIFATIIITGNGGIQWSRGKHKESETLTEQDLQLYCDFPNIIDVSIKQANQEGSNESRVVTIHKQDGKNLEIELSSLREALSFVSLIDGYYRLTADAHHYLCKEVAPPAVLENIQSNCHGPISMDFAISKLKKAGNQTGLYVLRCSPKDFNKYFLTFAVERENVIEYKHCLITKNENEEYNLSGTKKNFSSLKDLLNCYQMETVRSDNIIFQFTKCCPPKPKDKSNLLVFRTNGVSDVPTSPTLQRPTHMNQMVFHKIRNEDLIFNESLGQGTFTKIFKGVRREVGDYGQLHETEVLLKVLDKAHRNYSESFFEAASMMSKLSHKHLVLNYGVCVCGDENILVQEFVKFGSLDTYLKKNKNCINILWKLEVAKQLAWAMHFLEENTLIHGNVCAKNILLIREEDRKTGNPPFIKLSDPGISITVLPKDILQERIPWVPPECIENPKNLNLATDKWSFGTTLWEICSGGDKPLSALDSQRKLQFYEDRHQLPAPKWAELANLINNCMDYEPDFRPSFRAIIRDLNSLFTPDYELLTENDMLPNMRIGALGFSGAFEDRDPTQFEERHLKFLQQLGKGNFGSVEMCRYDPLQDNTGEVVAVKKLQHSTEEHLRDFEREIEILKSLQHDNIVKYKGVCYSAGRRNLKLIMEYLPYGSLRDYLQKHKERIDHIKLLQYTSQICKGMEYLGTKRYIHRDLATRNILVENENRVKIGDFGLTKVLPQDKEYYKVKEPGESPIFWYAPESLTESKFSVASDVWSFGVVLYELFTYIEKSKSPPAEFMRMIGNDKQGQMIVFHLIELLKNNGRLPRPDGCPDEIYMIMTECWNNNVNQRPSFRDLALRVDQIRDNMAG
Sequence of EPHB1 (P54762 whole entry, looked up): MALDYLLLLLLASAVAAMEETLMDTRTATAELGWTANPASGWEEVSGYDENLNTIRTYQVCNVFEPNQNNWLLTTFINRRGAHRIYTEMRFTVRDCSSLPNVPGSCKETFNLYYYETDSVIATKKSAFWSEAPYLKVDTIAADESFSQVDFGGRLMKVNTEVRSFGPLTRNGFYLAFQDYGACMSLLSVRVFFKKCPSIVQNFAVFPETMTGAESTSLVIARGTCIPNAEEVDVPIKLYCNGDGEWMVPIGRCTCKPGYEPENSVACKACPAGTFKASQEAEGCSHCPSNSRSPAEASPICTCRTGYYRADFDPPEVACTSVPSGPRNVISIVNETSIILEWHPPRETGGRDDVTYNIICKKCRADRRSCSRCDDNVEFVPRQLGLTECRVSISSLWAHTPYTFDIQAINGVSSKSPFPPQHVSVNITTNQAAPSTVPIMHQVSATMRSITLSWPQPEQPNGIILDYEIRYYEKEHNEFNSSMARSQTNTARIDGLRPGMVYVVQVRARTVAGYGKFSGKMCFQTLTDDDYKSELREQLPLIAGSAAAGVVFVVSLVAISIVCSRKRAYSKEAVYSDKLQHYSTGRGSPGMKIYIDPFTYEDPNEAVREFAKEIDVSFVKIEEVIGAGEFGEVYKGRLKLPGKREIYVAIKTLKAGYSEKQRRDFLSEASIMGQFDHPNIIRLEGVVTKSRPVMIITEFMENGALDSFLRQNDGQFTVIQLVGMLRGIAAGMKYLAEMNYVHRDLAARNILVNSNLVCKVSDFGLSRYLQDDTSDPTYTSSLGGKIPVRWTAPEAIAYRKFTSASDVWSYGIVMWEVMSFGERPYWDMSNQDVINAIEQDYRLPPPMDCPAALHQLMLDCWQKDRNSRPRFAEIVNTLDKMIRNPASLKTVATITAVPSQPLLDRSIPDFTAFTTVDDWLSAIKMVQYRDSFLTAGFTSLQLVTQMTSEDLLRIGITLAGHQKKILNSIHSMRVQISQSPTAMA
Sequence of FGFR3 (P22607 whole entry, looked up): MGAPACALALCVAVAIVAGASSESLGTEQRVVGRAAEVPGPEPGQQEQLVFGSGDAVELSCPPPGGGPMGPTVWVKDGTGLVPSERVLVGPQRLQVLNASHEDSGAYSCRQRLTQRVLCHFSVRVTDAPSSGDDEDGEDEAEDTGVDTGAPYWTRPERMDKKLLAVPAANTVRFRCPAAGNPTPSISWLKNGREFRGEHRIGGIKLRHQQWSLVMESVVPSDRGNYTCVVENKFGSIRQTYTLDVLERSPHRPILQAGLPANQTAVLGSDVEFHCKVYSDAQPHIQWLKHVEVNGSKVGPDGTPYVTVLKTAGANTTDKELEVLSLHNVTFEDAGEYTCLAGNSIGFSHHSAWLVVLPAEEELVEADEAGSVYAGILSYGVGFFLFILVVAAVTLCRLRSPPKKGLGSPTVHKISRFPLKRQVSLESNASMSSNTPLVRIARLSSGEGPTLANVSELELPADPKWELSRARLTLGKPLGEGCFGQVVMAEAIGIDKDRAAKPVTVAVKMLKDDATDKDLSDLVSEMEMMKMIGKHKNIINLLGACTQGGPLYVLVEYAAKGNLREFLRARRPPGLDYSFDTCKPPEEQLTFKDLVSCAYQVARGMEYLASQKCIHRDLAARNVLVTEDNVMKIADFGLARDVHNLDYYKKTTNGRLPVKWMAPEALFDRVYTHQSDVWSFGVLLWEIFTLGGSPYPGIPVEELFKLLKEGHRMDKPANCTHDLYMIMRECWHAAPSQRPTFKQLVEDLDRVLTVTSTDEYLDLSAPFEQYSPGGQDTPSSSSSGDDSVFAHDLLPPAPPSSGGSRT

| Sequence | phosphorylation enrichment (FGFR1) | phosphorylation enrichment (FGFR3) | phosphorylation enrichment (AncSZ) | phosphorylation enrichment (EPHB2) | phosphorylation enrichment (c-Abl (mouse)) | phosphorylation enrichment (Hck) | phosphorylation enrichment (Fes) | phosphorylation enrichment (Fer (mouse)) | phosphorylation enrichment (EPHB1) | phosphorylation enrichment (Jak2) | phosphorylation enrichment (Fyn) | phosphorylation enrichment (c-Src) | phosphorylation enrichment (MERTK) | SH2 binding enrichment (Grb2 SH2) | SH2 binding enrichment (c-Src SH2) | SH2 binding enrichment (SHP2-C SH2) |
| --- | --- | --- | --- | --- | --- | --- | --- | --- | --- | --- | --- | --- | --- | --- | --- | --- |
| FAANFYKLLGN [ROR2_Y646_D644N_YF] | 0.425 | 0.512 | 0.898 | 0.462 | 0.726 | 0.464 | 0.986 | 0.347 | 0.476 | 0.924 | 0.365 | 0.46 | 0.419 | 0.676 | 0.468 | 0.453 |
| RRGFLYDSDEE [MCM2_Y137_L135F] | 0.429 | 0.458 | 0.629 | 0.686 | 0.679 | 0.764 | 0.761 | 0.501 | 0.397 | 0.812 | 0.512 | 0.625 | 0.589 | 0.802 | 0.455 | 0.564 |
| FKGIVYAVSSD [DCX_Y70] | 0.424 | 0.505 | 0.86 | 0.49 | 0.629 | 0.391 | 0.916 | 0.428 | 0.416 | 0.802 | 0.484 | 0.49 | 0.371 | 0.809 | 0.535 | 0.825 |
| SVVGPYEPPEV [TP53_Y220_V218G] | 0.432 | 0.69 | 1.14 | 0.526 | 0.728 | 0.505 | 1.05 | 0.498 | 0.579 | 0.855 | 0.403 | 0.441 | 0.409 | 0.935 | 0.523 | 0.618 |
| RELGKYGLQAF [ALDH2_Y497_E496K_YF] | 0.578 | 0.582 | 1 | 0.577 | 0.786 | 0.584 | 0.926 | 0.537 | 0.489 | 0.774 | 0.526 | 0.491 | 0.612 | 0.834 | 0.438 | 0.503 |
| RIVTTYIWERE [DNM2_Y463_R465W] | 0.595 | 0.862 | 1.82 | 0.455 | 0.745 | 0.619 | 1.31 | 0.538 | 0.526 | 0.989 | 0.712 | 0.405 | 0.403 | 1.16 | 0.909 | 0.846 |
| TLQSMYGCDMG [HLA-B_Y123_V127M] | 0.8 | 0.955 | 0.939 | 0.823 | 1.15 | 0.609 | 1.43 | 0.599 | 0.709 | 1.2 | 0.597 | 0.689 | 0.63 | 0.916 | 0.757 | 0.485 |
| SVKVFYKKCWF [EPHA7_Y202_S207F_YF] | 0.533 | 0.833 | 1.06 | 0.518 | 0.816 | 0.513 | 1.23 | 0.544 | 0.782 | 1.01 | 0.568 | 0.478 | 0.425 | 0.764 | 0.441 | 0.765 |
| PKSLFYLLLKP [TRPC6_Y775_L780P] | 0.708 | 1.12 | 1.64 | 0.569 | 1.31 | 0.513 | 2.1 | 0.568 | 0.759 | 1.73 | 0.439 | 0.684 | 0.963 | 1.16 | 0.851 | 1 |
| AGEGSYALDSE [PES1_Y265_T264S] | 0.644 | 0.719 | 1.24 | 0.629 | 0.64 | 0.747 | 1.19 | 0.608 | 0.461 | 1.05 | 0.946 | 0.538 | 0.568 | 0.977 | 0.668 | 0.649 |
| EVASVYQSFQP [MAVS_Y92_YF] | 0.604 | 0.991 | 1.22 | 0.846 | 2.19 | 11 | 1.2 | 5.55 | 0.785 | 1.06 | 13.6 | 8.85 | 2.03 | 0.961 | 0.507 | 0.661 |
| ESDGAYIHRMQ [CCDC137_Y125] | 0.419 | 0.514 | 0.726 | 0.493 | 0.703 | 0.378 | 0.873 | 0.414 | 0.408 | 0.824 | 0.365 | 0.403 | 0.406 | 0.857 | 0.541 | 0.656 |
| QNTGHYSSENT [TMEFF2_Y361_D364E] | 0.828 | 0.548 | 0.66 | 0.389 | 0.561 | 0.468 | 1.33 | 0.868 | 0.814 | 0.575 | 0.903 | 0.588 | 0.908 | 0.95 | 0.467 | 0.735 |
| RKKEEYKMAPF [F8_Y1990_L1994P_YF] | 0.602 | 0.446 | 0.574 | 0.261 | 0.371 | 0.373 | 0.623 | 0.346 | 0.299 | 0.316 | 0.558 | 0.469 | 0.422 | 1.06 | 0.407 | 0.905 |
| GYSRHYEDGYP [CTNND1_Y217] | 0.391 | 0.529 | 0.691 | 0.465 | 0.67 | 0.383 | 0.722 | 0.374 | 0.383 | 0.623 | 0.382 | 0.488 | 0.524 | 0.818 | 1.46 | 0.676 |
| AKFLGYPPPEI [KDR_Y357_YF] | 0.499 | 0.609 | 0.773 | 0.413 | 0.627 | 0.488 | 0.902 | 0.459 | 0.474 | 0.565 | 0.426 | 0.436 | 0.412 | 0.794 | 0.476 | 0.619 |
